# Results from the supplement of paper PMC7877785.
# ± gives the uncertainty stated by the source.
# Test: self-splicing fitness, log relative to wild type (ln ratio); higher = more splicing; Tetrahymena group I intron in knt gene, E. coli kanamycin selection, DiMSum; sequences stand for … in CUCUCU…GGAGGGAAAAGUUAUCAGGCAUGCACCUGGUAGCUAGUCUUUAAACCAAUAGAUUGCAUCGGUUUAAAAGGCAAGACCGUCAAAUUGCGGGAAAGGGGUCAACAGCCGUUCAGUACCAAGUCUCAGGGGAAACUUUGAGAUGGCCUUGCAAAGGGUAUGGUAAUAAGCUGACGGACAUGGUCCUAACCACGCAGCCAAGUCCUAAGUCAACAGAUCUUCUGUUGAUAUGGAUGCAGUUCACAGACUAAAUGUCGGUCGGGGAAGAUGUAUUCUUCUCAUAAGAUAUAGUCGGACCUCUCCUUAAUGGGAGCUAGCGGAUGAAGUGAUGCAACACUGGAGCCGCUGGGAACUAAUUUGUAUGCGAAAGUAUAUUGAUUAGUUUUGGAGUACUCGUGGUCG
# In short: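 Colonies from six replicate transformations of E. coli BL21(DE3) were pooled and amplicon-sequenced on an Illumina HiSeq 2500. The library placed an intron with all eight P1ex-region nucleotides randomised inside the knt kanamycin-resistance gene on pET-22b(+), and cells grew overnight at 37°C or 30°C on LB agar with or without 25 μg/mL kanamycin (plus 100 μg/mL carbenicillin, 50 μM IPTG, 0.2% rhamnose). Fitness is the DiMSum error-weighted combination of wild-type-normalised replicate fold changes, kanamycin versus none.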
Sequence,self-splicing fitness (ln) (30 °C),self-splicing fitness (ln) (37 °C)
AUUUAGCAAUAUUACGAACA,-0.709 ± 0.15,-0.537 ± 0.17
GGAUAGCAAUAUUACGUCGU,-0.886 ± 0.1,-0.841 ± 0.12
CAGAAGCAAUAUUACGUUGG,-2.15 ± 0.11,-0.698 ± 0.1
ACCGAGCAAUAUUACGGGUC,-4.23 ± 0.14,-3.06 ± 0.14
UCUUAGCAAUAUUACGAUAA,-2.73 ± 0.46,-2.27 ± 0.4
AACGAGCAAUAUUACGGUAG,-3.73 ± 0.15,-3.17 ± 0.18
UAUGAGCAAUAUUACGUACA,-2.39 ± 0.18,-1.62 ± 0.23
UCAGAGCAAUAUUACGUUCU,-3.86 ± 0.22,-2.47 ± 0.25
UUAAAGCAAUAUUACGCCUU,-1.96 ± 0.18,-1.28 ± 0.19
UGCCAGCAAUAUUACGCCCG,-0.317 ± 0.12,0.404 ± 0.14
CUACAGCAAUAUUACGUCAA,-3.91 ± 0.19,-1.82 ± 0.14
GCGGAGCAAUAUUACGCAGU,-3.68 ± 0.45,-1.79 ± 0.39
UCGCAGCAAUAUUACGAGAA,-1.41 ± 0.34,-0.949 ± 0.21
GGGUAGCAAUAUUACGUCCC,-0.987 ± 0.29,
UACAAGCAAUAUUACGUACC,-2.83 ± 0.19,-1.93 ± 0.19
CUUGAGCAAUAUUACGGAGG,-2.13 ± 0.19,-1.67 ± 0.16
AAGUAGCAAUAUUACGGUCC,-1.32 ± 0.17,-0.239 ± 0.14
UGUUAGCAAUAUUACGCAUG,-1.38 ± 0.084,-0.483 ± 0.089
UGCCAGCAAUAUUACGUUCA,-0.171 ± 0.059,-0.0317 ± 0.089
ACCUAGCAAUAUUACGAACA,-2.24 ± 0.29,0.383 ± 0.2
GCGGAGCAAUAUUACGGGGA,-2.69 ± 0.39,-3.38 ± 0.42
GCAUAGCAAUAUUACGGUCC,-1.71 ± 0.098,-1.48 ± 0.11
AGCAAGCAAUAUUACGACUG,-0.672 ± 0.077,-0.735 ± 0.1
GUUGAGCAAUAUUACGUGAC,-2.31 ± 0.24,-2.48 ± 0.31

Sequence,self-splicing fitness (ln) (30 °C),self-splicing fitness (ln) (37 °C)
CUACAGCAAUAUUACGGCUA,-3.25 ± 0.25,-3.02 ± 0.22
CGGGAGCAAUAUUACGCUCA,-4.3 ± 0.46,-0.0948 ± 0.37
CAGGAGCAAUAUUACGCCCA,-2.13 ± 0.38,-1.18 ± 0.27
CACCAGCAAUAUUACGCUAC,-5.01 ± 0.45,-2.1 ± 0.16
GUACAGCAAUAUUACGGCUA,0.707 ± 0.15,0.282 ± 0.12
UCGCAGCAAUAUUACGAAGC,-3.52 ± 0.27,-2.25 ± 0.25
ACCCAGCAAUAUUACGUGCG,-3.12 ± 0.13,-1.85 ± 0.098
GGGUAGCAAUAUUACGGGGG,-2.97 ± 0.24,-2.09 ± 0.25
CGUAAGCAAUAUUACGUAAA,-3.15 ± 0.24,-2.1 ± 0.22
UAUGAGCAAUAUUACGACCA,-2.25 ± 0.16,-2.07 ± 0.18
AAGAAGCAAUAUUACGACUU,-0.363 ± 0.061,-0.819 ± 0.078
CGUAAGCAAUAUUACGCAUA,-3.73 ± 0.34,-3.16 ± 0.21
CGUCAGCAAUAUUACGACAU,-0.647 ± 0.012,-0.0443 ± 0.032
UCGCAGCAAUAUUACGAAAC,,-3.1 ± 0.35
GCGAAGCAAUAUUACGACAA,-2.21 ± 0.18,-0.672 ± 0.12
GCCUAGCAAUAUUACGAGAC,-1.85 ± 0.16,0.662 ± 0.12
GUGAAGCAAUAUUACGCCUG,-0.422 ± 0.091,0.015 ± 0.13
UCUGAGCAAUAUUACGACCU,,-2.62 ± 0.31
AAGUAGCAAUAUUACGUGCC,-0.879 ± 0.087,-0.766 ± 0.1
ACGAAGCAAUAUUACGUAGG,-2.12 ± 0.099,-1.43 ± 0.15
GAAAAGCAAUAUUACGAGUG,-1.08 ± 0.073,-0.813 ± 0.094
GCUUAGCAAUAUUACGUUGA,-2.65 ± 0.2,-1.15 ± 0.16
ACACAGCAAUAUUACGGGUG,-1.31 ± 0.053,-0.999 ± 0.065
UGUUAGCAAUAUUACGGUGU,-2.57 ± 0.17,-1.92 ± 0.18
